Assays:
[1] = target: NF-IL6 TCD WT (tryptic core domain, aa 266-345) (UniProt P17676); assay: EMSA; details: CITED Brasier and Kumar 1994; cited from earlier work
[2] = system: NF-IL6 full length (24-345); assay: EMSA; details: CITED Brasier and Kumar 1994; indistinguishable from TCD WT; cited from earlier work
NF-IL6 TCD S271A = NF-IL6 TCD S271A (UniProt P17676 SEQ:2-81, S271A); assay: EMSA; binding specificity indistinguishable from the other TCD peptides; details: tags: untagged, initiator Met removed; chain copies: 2 inferred; label: 32P fill-in; BamHI/BglII overhangs
NF-IL6 TCD V267A = NF-IL6 TCD V267A (UniProt P17676 SEQ:2-81, V267A); assay: as above; details: tags: untagged, initiator Met removed; chain copies: 2 inferred; label: 32P fill-in; BamHI/BglII overhangs
NF-IL6 TCD V267A, sequence (P17676 other isoform, or with tags, fused parts or gaps V267A | V267A V267A): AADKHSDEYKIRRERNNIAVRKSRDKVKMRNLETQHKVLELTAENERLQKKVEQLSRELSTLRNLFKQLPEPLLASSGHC

NF-IL6 TCD S271A, sequence (P17676 other isoform, or with tags, fused parts or gaps S271A | S271A S271A): as the sequence (P17676 other isoform, or with tags, fused parts or gaps V267A | V267A V267A) above, with A2V, S6A counted along it
NF-IL6 TCD WT (tryptic core domain, aa 266-345), sequence (P17676 other isoform, or with tags, fused parts or gaps): as the sequence (P17676 other isoform, or with tags, fused parts or gaps V267A | V267A V267A) above, with A2V counted along it

| Molecule | Kd [1] | Kd [2] | binding result (NF-IL6 TCD S271A) | binding result (NF-IL6 TCD V267A) |
| --- | --- | --- | --- | --- |
| APRE DNA (site used in cited work) | 36 nM | 36 nM |  |  |
| APRE M6 (32P) (dsDNA) DNA 1: GATCCACCACAGTTGTGATTTCACAACCTGACCA DNA 2: TGGTCAGGTTGTGAAATCACAACTGTGGTGGATC |  |  | binds | binds |
